Measurements published in article PMC8092709 (Journal of Virology, 2021).

Target: human aminopeptidase N (hAPN), residues 66 to 967 (human, UniProt P15144 66-967)
Assay: SPR

Chain of human aminopeptidase N (hAPN), residues 66 to 967 (P15144 66-967): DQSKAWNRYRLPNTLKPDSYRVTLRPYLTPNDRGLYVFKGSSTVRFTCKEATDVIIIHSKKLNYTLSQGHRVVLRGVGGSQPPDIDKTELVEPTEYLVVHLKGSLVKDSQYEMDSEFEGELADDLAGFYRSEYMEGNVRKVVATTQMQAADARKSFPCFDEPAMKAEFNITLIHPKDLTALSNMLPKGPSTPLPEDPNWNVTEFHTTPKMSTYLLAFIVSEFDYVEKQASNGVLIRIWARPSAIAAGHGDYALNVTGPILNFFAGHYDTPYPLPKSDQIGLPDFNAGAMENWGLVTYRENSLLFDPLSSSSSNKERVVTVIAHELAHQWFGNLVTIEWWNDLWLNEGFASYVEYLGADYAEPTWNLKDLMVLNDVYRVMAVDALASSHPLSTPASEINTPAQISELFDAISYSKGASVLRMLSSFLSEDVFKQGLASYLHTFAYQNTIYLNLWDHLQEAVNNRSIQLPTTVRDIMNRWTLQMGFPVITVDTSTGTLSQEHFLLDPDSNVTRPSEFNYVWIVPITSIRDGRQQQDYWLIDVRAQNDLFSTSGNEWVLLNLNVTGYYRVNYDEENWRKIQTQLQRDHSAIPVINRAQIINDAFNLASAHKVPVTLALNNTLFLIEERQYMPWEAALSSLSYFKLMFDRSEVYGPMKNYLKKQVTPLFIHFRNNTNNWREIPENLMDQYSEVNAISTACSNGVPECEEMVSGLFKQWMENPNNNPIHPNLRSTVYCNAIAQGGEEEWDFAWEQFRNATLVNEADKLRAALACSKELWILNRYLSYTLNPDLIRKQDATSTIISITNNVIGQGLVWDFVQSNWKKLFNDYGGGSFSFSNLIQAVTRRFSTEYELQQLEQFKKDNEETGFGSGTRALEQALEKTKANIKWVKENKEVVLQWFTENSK

B1: HCoV-229E S1 (residues 1 to 536) with C-terminal Fc tag (Fc fusion)
chain: CQTTNGLNTSYSVCNGCVGYSENVFAVESGGYIPSDFAFNNWFLLTNTSSVVDGVVRSFQPLLLNCLWSVSGLRFTTGFVYFNGTGRGDCKGFSSDVLSDVIRYNLNFEENLRRGTILFKTSYGVVVFYCTNNTLVSGDAHIPFGTVLGNFYCFVNTTIGNETTSAFVGALPKTVREFVISRTGHFYINGYRYFTLGNVEAVNFNVTTAETTDFCTVALASYADVLVNVSQTSIANIIYCNSVINRLRCDQLSFDVPDGFYSTSPIQSVELPVSIVSLPVYHKHTFIVLYVDFKPQSGGGKCFNCYPAGVNITLANFNETKGPLCVDTSHFTTKYVAVYANVGRWSASINTGNCPFSFGKVNNFVKFGSVCFSLKDIPGGCAMPIVANWAYSKYYTIGSLYVSWSDGDGITGVPQPVEGVSSFMNVTLDKCTKYNIYDVSGVGVIRVSNDTFLNGITYTSTSGNLLGFKDVTKGTIYSITPCNPPDQLVVYQQAVVGAMLSENFTSYGFSNVVELPKFFYA
- Kd: 255 nM
- koff: 0.000226 s⁻¹
- kon: 886 M⁻¹ s⁻¹

B2: HCoV-229E S1-RBD (residues 295 to 428) with C-terminal Fc tag (Fc fusion)
chain: VYHKHTFIVLYVDFKPQSGGGKCFNCYPAGVNITLANFNETKGPLCVDTSHFTTKYVAVYANVGRWSASINTGNCPFSFGKVNNFVKFGSVCFSLKDIPGGCAMPIVANWAYSKYYTIGSLYVSWSDGDGITGV
- Kd: 36 nM
- koff: 0.00115 s⁻¹
- kon: 32000 M⁻¹ s⁻¹
